{"source": "the supplement of paper PMC10266784", "parents": {"B1": {"name": "library; numbered along this chain (parent)", "chain": "MAAAAAAAAEQQSSNGPVKKSMREKAVERRSVNKEHNSNFKAGYIPIDEDRLHKTGLRGRKGNLAICVIILLFILAVINLIITLVIWAVIRIGPNGCDSMEFHESGLLRFKQVSDMGVIHPLYKSTVGGRRNENLVITGNNQPIVFQQGTTKLSVENNKTSITSDIGMQFFDPRTQNILFSTDYETHEFHLPSGVKSLNVQKASTERITSNATSDLNIKVDGRAIVRGNEGVFIMGKTIEFHMGGNMELKAENSIILNGSVMVSTTRLPSSSSGDQLGSGDWVRYKLCMCADGTLFKVQVTSQNMGCQISDNPCGNTH"}}}
{"variants_of": "B1", "test": "SGCB cell-surface expression functional score (HA stain, bin4 vs bin1, normalised to synonymous) (log10 ratio); higher = more cell-surface SGCB (functional)", "how_it_was_run": "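Human beta-sarcoglycan, tagged with HA and fused to YFP, was built into codon-saturation libraries and delivered by lentivirus at MOI <0.1 into HEK293 cells that stably express alpha-, gamma- and delta-sarcoglycan. After 72 hours, YFP-positive cells were sorted and grown for 5–7 days, then stained on ice with Alexa Fluor 647 anti-HA, fixed, sorted into four 5% intensity bins and amplicon-sequenced. Each variant's functional score is the log ratio of its frequency in the highest bin to that in the lowest bin, taken as the median across codons and transductions. Transductions were done in duplicate, and synonymous variants were scaled per section to mean 0, SD 0.5.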"}
{"variant": "MAAAAAAAAEQQSSNGPVKKSMREKAVERRSVNKEHNSNFKAGYIPIDEDRLHKTGLRGRKGNLAICVIILLFILAVINLIITLVIWAVIRIGPNGCDSMEFHESGLLRFKQVSDMGVIHPLYKSTVGGRRNENLVITGNNQPIVFQQGTTKLSVENNKTSITSDIGMQFFDPRTQNILFSTDYETHEFHLPSGVKSLNVQKASTERITSNATSDLNIKVDGWAIVRGNEGVFIMGKTIEFHMGGNMELKAENSIILNGSVMVSTTRLPSSSSGDQLGSGDWVRYKLCMCADGTLFKVQVTSQNMGCQISDNPCGNTH", "note": "[R223W]", "SGCB cell-surface expression functional score (log10)": 0}
{"variant": "MAAAAAAAAEQQSSNGPVKKSMREKAVERRSVNKEHNSNFKAGYIPIDEDRLHKTGLRGRKGNLAICVIILLFILAVINLIITLVIWAVIRIGPNGCDSMEFHESGLLRFKQVSDMGVIHPLYKSTVGGRRNENLVITGNNQPIVFQQGTTKLSVENNKTSITSDIGMQFFDPRTQNILFSTDYETHEFHLPSGVKSLNVQKASTERITSNATSDLNIKVDGTAIVRGNEGVFIMGKTIEFHMGGNMELKAENSIILNGSVMVSTTRLPSSSSGDQLGSGDWVRYKLCMCADGTLFKVQVTSQNMGCQISDNPCGNTH", "note": "[R223T]", "SGCB cell-surface expression functional score (log10)": 0.4}
{"variant": "MAAAAAAAAEQQSSNGPVKKSMREKAVERRSVNKEHNSNFKAGYIPIDEDRLHKTGLRGRKGNLAICVIILLFILAVINLIITLVIWAVIRIGPNGCDSMEFHESGLLRFKQVSDMGVIHPLYKSTVGGRRNENLVITGNNQPIVFQQGTTKLSVENNKTSITSDIGMQFFDPRTQNILFSTDYETHEFHLPSGVKSLNVQKASTERITSNATSDLNIKVDGSAIVRGNEGVFIMGKTIEFHMGGNMELKAENSIILNGSVMVSTTRLPSSSSGDQLGSGDWVRYKLCMCADGTLFKVQVTSQNMGCQISDNPCGNTH", "note": "[R223S]", "SGCB cell-surface expression functional score (log10)": 0.18}
{"variant": "MAAAAAAAAEQQSSNGPVKKSMREKAVERRSVNKEHNSNFKAGYIPIDEDRLHKTGLRGRKGNLAICVIILLFILAVINLIITLVIWAVIRIGPNGCDSMEFHESGLLRFKQVSDMGVIHPLYKSTVGGRRNENLVITGNNQPIVFQQGTTKLSVENNKTSITSDIGMQFFDPRTQNILFSTDYETHEFHLPSGVKSLNVQKASTERITSNATSDLNIKVDGKAIVRGNEGVFIMGKTIEFHMGGNMELKAENSIILNGSVMVSTTRLPSSSSGDQLGSGDWVRYKLCMCADGTLFKVQVTSQNMGCQISDNPCGNTH", "note": "[R223K]", "SGCB cell-surface expression functional score (log10)": 0.86}
{"variant": "MAAAAAAAAEQQSSNGPVKKSMREKAVERRSVNKEHNSNFKAGYIPIDEDRLHKTGLRGRKGNLAICVIILLFILAVINLIITLVIWAVIRIGPNGCDSMEFHESGLLRFKQVSDMGVIHPLYKSTVGGRRNENLVITGNNQPIVFQQGTTKLSVENNKTSITSDIGMQFFDPRTQNILFSTDYETHEFHLPSGVKSLNVQKASTERITSNATSDLNIKVDGFAIVRGNEGVFIMGKTIEFHMGGNMELKAENSIILNGSVMVSTTRLPSSSSGDQLGSGDWVRYKLCMCADGTLFKVQVTSQNMGCQISDNPCGNTH", "note": "[R223F]", "SGCB cell-surface expression functional score (log10)": -0.62}
{"variant": "MAAAAAAAAEQQSSNGPVKKSMREKAVERRSVNKEHNSNFKAGYIPIDEDRLHKTGLRGRKGNLAICVIILLFILAVINLIITLVIWAVIRIGPNGCDSMEFHESGLLRFKQVSDMGVIHPLYKSTVGGRRNENLVITGNNQPIVFQQGTTKLSVENNKTSITSDIGMQFFDPRTQNILFSTDYETHEFHLPSGVKSLNVQKASTERITSNATSDLNIKVDGQAIVRGNEGVFIMGKTIEFHMGGNMELKAENSIILNGSVMVSTTRLPSSSSGDQLGSGDWVRYKLCMCADGTLFKVQVTSQNMGCQISDNPCGNTH", "note": "[R223Q]", "SGCB cell-surface expression functional score (log10)": 0.48}
{"variant": "MAAAAAAAAEQQSSNGPVKKSMREKAVERRSVNKEHNSNFKAGYIPIDEDRLHKTGLRGRKGNLAICVIILLFILAVINLIITLVIWAVIRIGPNGCDSMEFHESGLLRFKQVSDMGVIHPLYKSTVGGRRNENLVITGNNQPIVFQQGTTKLSVENNKTSITSDIGMQFFDPRTQNILFSTDYETHEFHLPSGVKSLNVQKASTERITSNATSDLNIKVDGHAIVRGNEGVFIMGKTIEFHMGGNMELKAENSIILNGSVMVSTTRLPSSSSGDQLGSGDWVRYKLCMCADGTLFKVQVTSQNMGCQISDNPCGNTH", "note": "[R223H]", "SGCB cell-surface expression functional score (log10)": 0.2}
{"variant": "MAAAAAAAAEQQSSNGPVKKSMREKAVERRSVNKEHNSNFKAGYIPIDEDRLHKTGLRGRKGNLAICVIILLFILAVINLIITLVIWAVIRIGPNGCDSMEFHESGLLRFKQVSDMGVIHPLYKSTVGGRRNENLVITGNNQPIVFQQGTTKLSVENNKTSITSDIGMQFFDPRTQNILFSTDYETHEFHLPSGVKSLNVQKASTERITSNATSDLNIKVDGIAIVRGNEGVFIMGKTIEFHMGGNMELKAENSIILNGSVMVSTTRLPSSSSGDQLGSGDWVRYKLCMCADGTLFKVQVTSQNMGCQISDNPCGNTH", "note": "[R223I]", "SGCB cell-surface expression functional score (log10)": 0.02}
{"variant": "MAAAAAAAAEQQSSNGPVKKSMREKAVERRSVNKEHNSNFKAGYIPIDEDRLHKTGLRGRKGNLAICVIILLFILAVINLIITLVIWAVIRIGPNGCDSMEFHESGLLRFKQVSDMGVIHPLYKSTVGGRRNENLVITGNNQPIVFQQGTTKLSVENNKTSITSDIGMQFFDPRTQNILFSTDYETHEFHLPSGVKSLNVQKASTERITSNATSDLNIKVDGLAIVRGNEGVFIMGKTIEFHMGGNMELKAENSIILNGSVMVSTTRLPSSSSGDQLGSGDWVRYKLCMCADGTLFKVQVTSQNMGCQISDNPCGNTH", "note": "[R223L]", "SGCB cell-surface expression functional score (log10)": 0.34}
{"variant": "MAAAAAAAAEQQSSNGPVKKSMREKAVERRSVNKEHNSNFKAGYIPIDEDRLHKTGLRGRKGNLAICVIILLFILAVINLIITLVIWAVIRIGPNGCDSMEFHESGLLRFKQVSDMGVIHPLYKSTVGGRRNENLVITGNNQPIVFQQGTTKLSVENNKTSITSDIGMQFFDPRTQNILFSTDYETHEFHLPSGVKSLNVQKASTERITSNATSDLNIKVDGRCIVRGNEGVFIMGKTIEFHMGGNMELKAENSIILNGSVMVSTTRLPSSSSGDQLGSGDWVRYKLCMCADGTLFKVQVTSQNMGCQISDNPCGNTH", "note": "[A224C]", "SGCB cell-surface expression functional score (log10)": 0.31}
